Measurements as given in publication PMC10279700, “Structural insights into regulation of the PEAK3 pseudokinase scaffold by 14-3-3” (Nature Communications, 2023).
Numbering of substitutions follows the chain as printed. Names and notes keep the numbering of the source.

T1: endogenous 14-3-3, P62258
T1 chain: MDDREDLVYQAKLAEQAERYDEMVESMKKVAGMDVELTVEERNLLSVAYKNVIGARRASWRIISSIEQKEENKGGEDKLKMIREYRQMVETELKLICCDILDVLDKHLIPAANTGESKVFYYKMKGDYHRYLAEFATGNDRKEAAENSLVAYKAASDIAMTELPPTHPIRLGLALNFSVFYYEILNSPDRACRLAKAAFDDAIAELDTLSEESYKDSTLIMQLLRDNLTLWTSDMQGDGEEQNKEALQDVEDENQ

B1: FLAG-tagged WT PEAK3, Q6ZS72 S69A (protein)
chain: MSSPEPPTEPPEPDNPTWSTQPTYSNLGQIRAHLLPSKACRLRTPGSLSTNPEPLPPPLPKKILTRTQALPTRRTLHPSSIQVQPPRRPFLGSHSVDKSQAAVGPACLPAELTFGPADAPLGLSLRDLHSPEAVHTALAARQLQGLRTIYARLRARLMGGHPGPCHPGHSFRLLDSSPCAESGDALYYRVVRAHEDAWHILVAKVPKPGADVPHPWGLELQASLSPHFNLQGLCGLVPEGTLPGAPWRGAVALAAEVPERTVAQWLAEACTQPPEEFVWAVALLLLQLSAALKFLEAWGAALVELRPENLLLVAPRGCATTGPPRLLLTDFGRVCLQPPGPPGSPGPHAPQLGSLLRALLSLAAPSTTPLAAGLELLAAQLTRLRPSASRTRGALQALLWGPGPELRGRGAPLGPWLRALGPWLRVRRGLLVLRLAERAAGGEAPSLEDWLCCEYLAEATESSMGQALALLWD
B2: FLAG-tagged WT PEAK3, Q6ZS72 S225A (protein)
chain: B1 chain with A69S, S225A
B3: FLAG-tagged WT PEAK3, Q6ZS72 W298A (protein)
chain: B1 chain with A69S, W298A
B4: FLAG-tagged full-length human PEAK3 (PEAK3-1xFLAG) (natural protein, UniProt Q6ZS72 1-473, looked up)
chain: B1 chain with A69S
modifications: phosphoserine at 69
notes: PEAK3 pseudokinase (C19orf35), human, gene synthesized by GenScript; residues modelled: chain A 128-406, 419-473; chain B 130-406, 415-472; N-terminal peptides chain E 66-73 and chain P 66-72; Purifies as a homodimer, alone or in complex with an endogenous 14-3-3 heterodimer; also called C19orf35; PEAK3 homodimer; source: Expi293F, transfected, purified (G1 Flag resin, FLAG peptide elution, …)
B5: FLAG-tagged WT PEAK3, Q6ZS72 K293A (protein)
chain: B1 chain with A69S, K293A
B6: FLAG-tagged WT PEAK3, Q6ZS72 K293A; W298A (protein)
chain: B1 chain with A69S, K293A, W298A
B7: 14-3-3β (natural protein, human (endogenous in Expi293F), UniProt P31946 1-246, looked up)
chain: MTMDKSELVQKAKLAEQAERYDDMAAAMKAVTEQGHELSNEERNLLSVAYKNVVGARRSSWRVISSIEQKTERNEKKQQMGKEYREKIEAELQDICNDVLELLDKYLIPNATQPESKVFYLKMKGDYFRYLSEVASGDNKQTTVSNSQQAYQEAFEISKKEMQPTHPIRLGLALNFSVFYYEILNSPEKACSLAKTAFDEAIAELDTLNEESYKDSTLIMQLLRDNLTLWTSENQGDEGDAGEGEN
notes: 14-3-3 protein beta, human; residues 3-232 modelled in the cryo-EM structure; also called 14-3-3 beta; β isoform; source: endogenous, Expi293F, co-purified with PEAK3-1xFLAG

Key:
[1] = target: FLAG-tagged PEAK3 R147A (human) (UniProt Q6ZS72); assay: co-IP; FLAG-tagged PEAK3 variants transiently expressed in HEK293; anti-FLAG/protein A beads overnight at 4 °C; endogenous 14-3-3 detected with anti-pan 14-3-3 by Western blot; also after 1 h of 0.1% DMSO or PKD inhibitors CRT0066101 or CID755673 (dose-dependent decrease, not abolished)
[2] = target: T1, endogenous 14-3-3, P62258; assay: co-immunoprecipitation, quantified Western blot; settings: chain shown with the change; transiently expressed in HEK293 cells; 3 independent experiments; parent: est. 100; read off a plot
[3] = target: the molecule itself; assay: cryo-EM structure; PEAK3/14-3-3 complex co-purified from Expi293F (FLAG affinity, SEC), 7 uM, 0.1% n-Octyl-β-D-glucoside; 169,563 particles, C1, 3.1 Å
[4] = target: B4; assay: as above; settings: both partners purified

Row | Molecule | percent of parent [2] | also measured
1 | endogenous 14-3-3 (from UniProt P62258 1-255) (FLAG-tagged variant transiently expressed in HEK293) |  | reduction in 14-3-3 association relative to WT PEAK3 [1]: 75%
2 | B1 | 0 | 
3 | B2 | 82 | 
4 | B3 | 57 | 
5 | B4 |  | stoichiometry N [3]: 2
6 | B5 | 62 | 
7 | B6 | 43 | 
8 | B7 |  | binding result [4]: binds
